Test results from the DeepSol protein solubility set.

experiment: soluble on expression in E. coli; label from the status in PepcDB or PDB records

Soluble on expression in E. coli, not soluble:
MGSDKIHHHHHHMGYSFVHPTGVTLYNPEKAFNGYTLMSIRELGAGLIDMNGNVVRLWKDLHGFPNKLLPGGYVIGSLGIRDPAYGYQDQTDLVQVDWEGNVVWKFNRLEYIEDPDNKPQWMVRQHHDYQRDGNPVGYYIPGMECRTDGGNTLILCHENLFNTKISEKRLLDDCFIEVDWEGNILWSWRASDHFEEMNFSDAAKNAMYRNPNMLENGGGMGDWLHINSMSYLGPNQWYDAGDERFHPENIIWDGREANISAIIDKKSGVIVWQMGPDFSATKELRRIGQIIGQHHVHMIPKGLPGAGNILIFDNGSWGGYGTPSNVSKDGIKADHADRSRVIELNPVTMEVVWQLTASELGYKPAGIFDYRFYSPLTSSAQRLPNGNTLITEGTGFRVFEVTADHEVVWEFWSPFTNAVAPTVYRTYRYPYSYVPHLAKPQETPIPRLDIKTFRVPGAAAGQLANQIKVAGTTGYGDKQELCVSFGEEL, MGSDKIHHHHHHMHFFIRIKEKYIECIRGNINDMQTADYSMVSEIIGNPQRLGMLVFLMDGRFRTVNEVTKATNLKPNTVSLYLSHFEKISWLDDYFQGRWHYYRLANSEVASLIEKILVLSPKKKITYFNLNEEEKLLHTGRSCYNHLAGQLGVQLLCSMKTLNWIRQDGSAFQLTDKGQSNLNNALEIKFSFQEQKSWDFILPCMDWSERQLHLKGIVGKKILGAMLDKEWLYRPNRTRALALTYKGKEKFGDFLQIRA, MGSDKIHHHHHHMHHRSSPLSRCLNRPSLSENRLVERACLSVGRRPSSSRSRRQHAGRLALLLGTLAPAVVLAQAAPDTVAMPQGINLGGTSFMDGFGSTTPGWTVLEYLRYYDLDAIKNARGDNSPAFRDPQVGVSALLTQLIYVTPYSLGRGSLSFNTIIPLVNYDTSFAADSPVRLRSNGFGMGDISFGPALQMPPVMRDGRVFFFQRFALDLFAPVGKFDRDIAINQGTGFWSIAPQWAFTVQPTDNWEISARINYLYNFRTDRAGGVPPIPGFRFRNGQAGDAVWVNFASSVKVSEQLRVGVNGYFLQQLKDNRTNGERVADSKRMQLYLGPGLSWRVDAKNLFNLNLYIPLDVENSVAGNSVNLMYVHSL, MGSDKIHHHHHHMHHSHHLEIYEKLREKLDKAPVGLPKTVSGVEKEILSVLFDEEEAKIAVHMPFIRFTAEQLAERTGKSLEYVEKILNEMAKKGTVWKGEKDGKTYYRLFPVIVGFAEMPFLAGPGRDARQEKLAPLWAKYRKEGFLDELGDREHAILRALPEKSTISKQSVILPYEDAEKLVRDRDYHAVGYCPCRIMARLIGEGCRHSLEVCLHFGSLGKYMVEHGYARRITADEAVEILRKSNREGLVHVTERSKGPISTICNCCSDCCAFFRAIHEAGHPKTIAHSSYVASVDSSKCIACGICMLRCPMKAVKAKINREPANVEAEKCLGCGVCVPTCPVEAIELVEREELQEWPDHLTYYQELLADRGKDPAGLF, MGSDKIHHHHHHMHHVVGVRFKKAGKIYYFSPGDLDIPRGESVIVETSRGVEYGNVVIEKKTVGDNDVVLPLKQVIRVATEKDKLAVQENKEAAKKAYDVCVQKIMEHQLDMKLVDVEYTFDRNKVLFYFTADGRIDFRELVKDLASVFRTRIELRQIGVRDEAKMLGGIGPCGRILCCSSFLGDFEPVSIKMAKDQNLSLNPAKISGLCGRLMCCLKYENDMYESAKQELPDLGETIDTPHGKGKVVGLNMLERLVQVHLFEGERVLEFSLEELLERGAVSAEATE, MGSDKIHHHHHHMHNKFYRGRFAVAPMLDWTTRHCRYFHRQFSQQALLYTEMITAPAILHAKYDLLEYDPAEQPVALQLGGSDPTQLANCAKLVQARGYTEINLNVGCPSDRVQNGMFGACLMANADLVADCIKAMQDVVDIPVTIKHRIGIDTLDSYAFLCDFIDKIQPYSQDFIVHARKAWLSGLSPKENREIPPLDYERVYQLKRDFPQLNISINGGIKTIDEIKQHLTKVDGVMVGREAYQNPALLGEIDQQLFDQNQPLITARIAVENMLPYIEQQLSKGVYLNHIVRHMLGAFQNCKGARQWRRHLSENACKQGAGIEVVEQALRFVTE, MGSDKIHHHHHHMHQTLATSRKTSNACNVLALCTRDNPAILTIAHRGFWTATAENSLASVRAAVAAGVEMIEIDTQATADGRLVVIHDETLDRTTTGKGTVSALPFEVVRAAKLKAGAGGDGADVTDECVPTLEEVLEEARGRITVNIDTKFTRDLPQVMETVLRLGVEDQVLVKTDVDPEAERFEVLGSHWFGRIPHMPMFPVRKGKFAEDLRRIEALKAPMIEVKFTDIADLAEGRAEMERQNIRLWINSLDVSHCLDFNDTRALSNPEAVWGALAEAGTGAIQTDEVEAFTAWLKAGAGETGRAWTR, MGSDKIHHHHHHMHRLPPLRAIQVFDSVARNQSFSIAASQLAITQGAVSKQVKLLEEFYAEKLFIRCGTNIELTKKGTWLAYQLTPIFDQLNGICNFNSISRGKIRIATYPSLSLGYLTYEIEQFNSAHPNIDVEIILAINHPTMCDEIADLFITTEESIDGYHYQQLFQERLIPVISPKIINDTTIIKIKDLTGYTLLVTNGKENSDWQLWFNHHNLKPAIYQKMNMFSDALLSTRAAELGNGIALSCEVTAHRDIIDGRLCKVGLPSAPTGRRYFLCCKNRRRYEPNIKLLSDWINKKFIND, MGSDKIHHHHHHMHTQVNELFSELWQNYVSVTPSAAKIHALLGSSQQDDVQNDHIALRTFNIEKINLDKLAAHFLALGYKENGEYHFEAKKLYAKHYEHPDPTQPKVFISELLLEKCSPELQAIVHKLVDQIDVAAVTADNFLYSGRHWSIDQATYNTLVKESEYAAWVSVWGFRANHFTVSVNALKNFETLVSVNDTLKAAGFALNTSGGEIKGSQEVMLKQSSTLADEALVEFTDGSKMVPSCFYEFARRFPMADGTLYPGFVAASADKIFESTNAR, MGSDKIHHHHHHMHYEEGDDLVASSMTYSVKEMSMRNVRPVLLSLGLLSTVGIATAADTTTFNVKIAVTKACTITAASATDVDFGSVLSTSTANADANGSVTAQCTALTPYNIALSAGSNAGTANDVTTRRMKNTDALVTTNNFVAYQLYQDLGRSTVWGSTSGTNTLSRTATGINQIYPVYGRVTNPSAGNPATGTYQDTITATIIY, MGSDKIHHHHHHMIAQVEPFHAIAISRLAHDLEAAGQSVIHMEFGQPSTGAPAEAIALAHEVLDNEAMGYWESVPLKERIARSYAENHGVKVEREQVILTCGASPAFVMALSCLFRPGARIALARPGYVAYRNSLKAMYLEPVEMECGPAERFQVTAAAVDALDPVPDGLIVASPANPTGTIIEPGELAAIAEVCCRKGIRVISDEIYHGLSYGKAAASMLEYLPDAVIVNSFSKYFSMAGWRLGWLVVPPSLIDAARARMGSLFLTPPVLAQKAGLKAFDCRAELDGHVETYARNRAILLEALPQMGLGRIAPPDGAFYIYADASEFTDDSLALCEALLRDTGVATAPGLDFDPVNGKRFIRFSFAVSTPLIEEAVRRIGPWFAARRAVSPAQAPS, MGSDKIHHHHHHMIDFHVHTTFSDSTMTPAVAVRHAKMAGYRAVALTDHADHANMDLILRQTLPLARKYSLYAGIEVFAGVELTHVPPALIPEAVREARAMGAQLVLVHGETISDAVETGTNLAAIEGGVDILAHPGLVSDEDAAYAAERGVRFEITTRPGHALTNGHVAMAARRHGVRCVINNDAHHSRDFVNPDHRLAVALGAGLTTAEVTAAEAESRTLLGRLLREVR, MGSDKIHHHHHHMIDITDKQSCCGCSSCVQKCPRQCISLHEDTEGFLYPVVDKGDCIDCGLCEKVCPLLHWGEALVPMEVLAVKNKNQEERIHSSSGGVFIALSRQIIMDGGVVFGAVYDENWEVRITYSETLDGVRPMMGSKYLQARVETGFADAERFLKQGRYVLFSGTPCQIAGLHKYLRKDYPNLLSVDFLCHGVPSPGVWRRYLKETMSDLQSARRAAAGKNTVFPSLNVMPTIVGIEFRDKTLHGWKKYSFVVRGKSAFNADKNSVLLSDIHRENPFMRGFLSDIYLRPSCYECKCKNGVSHSDLTIADFWGIDRLMPDFDDDKGIGLALVNTVKGKQIFKRLSIDIRLSALSDVVALNGGFKEYRQPHPARLVFFRRFAVGETVESIVEDILRVPLWRRVMRNIKTFCKMIINRKQLTIIPLFIRRSKKRDK, MGSDKIHHHHHHMIDTFERTGPLMEASSYPAWAQQLINDCSPAKARVVEHELYQQMRDAKLSPQIMRQYLIGGWPVVEQFAVYMAKNLTKTRFGRHPGEDMARRWLMRNIRVELNHADYWVNWCAAHDVTLEDLHDQRVAPELHALSHWCWQTSSSDSLAVAMAATNYAIEGATGEWSAVVCSTGVYAEAFAEETRKKSMKWLKMHAQYDDAHPWEALEIICTLVGNKPSLQLQAELRQAVTKSYDYMYLFLERCIQLDKVKSPRGRVAALEM, MGSDKIHHHHHHMIDVEEILSKMNLNQKINYDRVMQKMVQVWEKNEQRPTILMHVCCAPCSTYTLEYLTKYADVTIYFANSNIHPKAEYHKRAYVTKKFVSDFNERTGNSVQYLEAPYEPNEYRKLVRGLEEEPEGGDRCQVCFDYRLDKTAQVAMDLGFDYFGSALTISPHKNSQTINSIGIDVQKIYTTHYLPSDFKKNQGYKRSVEMCEEYDIYRQCYCGCVYAAQAQNIDLVQVKKDATAFLLDKDVEKDYSHIKFTVTKLDI, MGSDKIHHHHHHMIEQELTYQDLRIPSSEIYEAMGYKDSIPDQMVIDETNTLLKRVIPLLRPRFAFFFMEGTLDIEKETLSVQSIHPPTVNPIQDTIPTRSPEQNTFSTQSKSTVFSVGKTIARQLRGSEAFVFFAATAGTEFEVFQHTLQQEEDMVKIYIADSLGSIIAEKTADCMEVALAEYIREKNWKHTNRYSPGYCGWHVSEQQKLFPLFPIAAPCGIRLTDSSLMVPIKSVSGVIGTGTNVRKLEYTCGLCTYENCYRKRKHR, MGSDKIHHHHHHMIFDGYEAYRAANFKPKVCILGSGPAGTTIARKLGAAGIPVVVLEAGSREFSDESQDFYRGTKVGDFYFDLDITRLRYMGGSSNHWAGWCRVLDKLDFEPKAWAPDTGWPIRRADIEPYLTEVRDILELPDFRPDVPISDDIRWVQLIKSPAVRFAEKFADELDKSGNIAVVLNTYATELAGDGKRVTGAKLWSNGQDAGAFSADYFIVCTGGLENSRLLLWSNQRSNGGVVPNATALGRYWMEHPTFEGGNAILADYGEFEVDAVNEAFFSPTLAAMERLRIMNFGIRLIETPYAGVKHVIADLACTAPDMAEWVAYQLSQNLRCAAQLYVAWEQAPLASNQIELSKTDVDHAGVPRIELHWKKSELERRTLVEGLKLFGTTLIEKDLGRVRLMDWIANGEDYPTDEETAGHHHMGGTRMGIDMTRSVVDANCKVHGMDNLYVGGSSVFCTSGQANPTTTITALACRLGEHLSKVVAV, MGSDKIHHHHHHMIGALYVVGPAGTGKSTFSGSLNEWLKRMEFDSAIINLDPGADYLPYEPDFDIREYISLDSIMSDYNLGPNGSQIVAADMIVSYTDKITEFLEDLDDYYVVVDTPGQIELFTFRTSSTEIVEKVSGQRSMMAYIADAPLATYPSGFIAQKMLYASVFSRFFRPMMFVLNKIDLVSDEDIQEVKKWESSPDLLNDAFMEEKGQMEKDYFVGILQAFKESNIMTKIYPVSSRDSFGFEDIYSQMALYFTGGEDNDTYREEG, MGSDKIHHHHHHMIGLRLDGYDPDLHHDAAVAFCIRARDDELFSPRHQHRKGQLILALHGAITCEVENAMWMVPPQYAVWLPGSLPHSNHVTAGAELCFLFIEPAAVVMPERCCTLKISPLCRELILSLARRTDPERAQMPTQRLIQVLFDELPQQPQEQLQLPVSGHPKIRQMVETMAQEPARWNTLGQWASVFAMSERNLARLVVKETGLSFRRWRHQLQLILALQALIAGRNVQQTAQMLGYDSTTAFITMFKKGLGQTPGQYLTGELLLPHN
